# Assay results taken from the RNAGym collection of RNA variant scans (doi:10.7554/elife.90254).
# B1: LINE1-mini (parent)
# chain: GGCAGAGCUCAACACAGCGUGGCAAAGUGGCUGUGGCUAGACUGCC
# Variants of: B1
# Experiment: self-cleavage, relative activity (ratio to wild type); higher = more cleavage; in vitro, sequencing; the parent is a self-cleaving ribozyme
row,Variant,self-cleavage
1,U34G C45U,0.19
2,U34G C45G,0.13
3,U34G C45A,0.06
4,U34C A41C,0.05
5,U34C A41U,0.06
6,U34C A41G,0.07
7,G35A C42A,0.06
8,G35A C42U,0.09
9,G35A C42G,0.04
10,U34C C37U,0.05
11,U34C C37A,0.09
12,U34C C37G,0.04
13,G35A G36U,0.19
14,G35A G36A,0.17
15,G35A G36C,0.17
16,G35A A41C,0.04
17,G35A A41G,0.05
18,G35A A41U,0.14
19,G33A G44U,0.03
20,G33A G44C,0.07
21,G35C G44A,0.09
22,G35C G44C,0.05
23,G35C G44U,0.06
24,G33C G40C,0.07

row,Variant,self-cleavage
1,G33C G40U,0.06
2,G33C G40A,0.05
3,U34C G36U,0.06
4,U34C G36A,0.09
5,U34C G36C,0.08
6,G35U U38A,0.12
7,G35U U38G,0.03
8,G35U U38C,0.09
9,G33C C37G,0.04
10,G33C C37U,0.05
11,G33C C37A,0.03
12,U34A A41G,0.05
13,U34A A41C,0.03
14,U34A A41U,0.05
15,U34A A39U,0.06
16,U34A A39G,0.05
17,U34A A39C,0.12
18,G33U C37U,0.06
19,G33U C37G,0.05
20,G33U C37A,0.07
21,G35A,0.16
22,G35C,0.11
23,G35U,0.16
24,G36A U38A,0.08

row,Variant,self-cleavage
1,G36A U38G,0.03
2,G36A U38C,0.12
3,U34A U38A,0.17
4,U34A U38G,0.06
5,U34A U38C,0.2
6,U34G G44A,0.04
7,U34G G44C,0.07
8,U34G G44U,0.07
9,G36A U43G,0.01
10,G36A U43C,0.31
11,G36A U43A,0.07
12,G33C A41U,0.08
13,G33C A41G,0.04
14,G33C A41C,0.05
15,U34C U43A,0.11
16,U34C U43C,0.04
17,U34C U43G,0.31
18,G33U U34C,0.23
19,G33U U34G,0.05
20,G33U U34A,0.08
21,G36A G44A,0.43
22,G36A G44C,0.15
23,G36A G44U,0.15
24,U34C G35A,0.05

row,Variant,self-cleavage
1,U34C G35C,0.06
2,U34C G35U,0.18
3,G33C C45U,0.05
4,G33C C45A,0.04
5,G33C C45G,0.06
6,G35U A41G,0.08
7,G35U A41U,0.14
8,G35U A41C,0.08
9,G35A U43G,0.03
10,G35A U43C,0.07
11,G35A U43A,0.09
12,G33C C46U,0.05
13,G33C C46A,0.03
14,G33C C46G,0.05
15,G35C C42U,0.05
16,G35C C42G,0.04
17,G35C C42A,0.1
18,U34G C37G,0.07
19,U34G C37U,0.1
20,U34G C37A,0.06
21,G33U C45G,0.07
22,G33U C45U,0.08
23,G33U C45A,0.05
24,G33U C46G,0.07

row,Variant,self-cleavage
1,G33U C46U,0.07
2,G33U C46A,0.07
3,G36A A41G,0.2
4,G36A A41U,0.44
5,G36A A41C,0.05
6,G35A C46G,0.15
7,G35A C46A,0.11
8,G35A C46U,0.1
9,U34G G35U,0.07
10,U34G G35C,0.12
11,U34G G35A,0.06
12,G33U G35A,0.08
13,G33U G35U,0.11
14,G33U G35C,0.06
15,G33C G35U,0.04
16,G33C G35C,0.04
17,G33C G35A,0.04
18,G33U G40U,0.14
19,G33U G40A,0.03
20,G33U G40C,0.05
21,G33A U38G,0.03
22,G33A U38C,0.17
23,G33A U38A,0.13
24,G35U C45U,0.12

row,Variant,self-cleavage
1,G35U C45A,0.12
2,G35U C45G,0.07
3,G36A A39C,0.27
4,G36A A39U,0.22
5,G36A A39G,0.39
6,U34C A39U,0.07
7,U34C A39G,0.04
8,U34C A39C,0.09
9,G35C C45U,0.08
10,G35C C45A,0.06
11,G35C C45G,0.03
12,U34A C37U,0.04
13,U34A C37G,0.04
14,U34A C37A,0.08
15,U34G A39U,0.09
16,U34G A39C,0.05
17,U34G A39G,0.07
18,G35A G40C,0.08
19,G35A G40U,0.05
20,G35A G40A,0.07
21,U34G A41C,0.04
22,U34G A41U,0.17
23,U34G A41G,0.05
24,U34C U38A,0.11

row,Variant,self-cleavage
1,U34C U38G,0.06
2,U34C U38C,0.07
3,U34A C45A,0.08
4,U34A C45U,0.11
5,U34A C45G,0.15
6,U34G U38A,0.3
7,U34G U38C,0.16
8,U34G U38G,0.03
9,G35U C37A,0.23
10,G35U C37U,0.06
11,G35U C37G,0.05
12,G35A A39U,0.12
13,G35A A39G,0.07
14,G35A A39C,0.08
15,G35C A39U,0.06
16,G35C A39G,0.09
17,G35C A39C,0.13
18,G35C C37G,0.09
19,G35C C37A,0.08
20,G35C C37U,0.03
21,G35C C46A,0.1
22,G35C C46U,0.06
23,G35C C46G,0.06
24,G35U G44U,0.11

row,Variant,self-cleavage
1,G35U G44A,0.13
2,G35U G44C,0.07
3,U34A G36U,0.04
4,U34A G36A,0.09
5,U34A G36C,0.03
6,G35A C37A,0.14
7,G35A C37U,0.06
8,G35A C37G,0.02
9,U34A G40C,0.04
10,U34A G40A,0.09
11,U34A G40U,0.06
12,U34A U43G,0.04
13,U34A U43C,0.04
14,U34A U43A,0.06
15,G35C U43G,0.09
16,G35C U43C,0.12
17,G35C U43A,0.11
18,G33C U38G,0.03
19,G33C U38A,0.04
20,G33C U38C,0.04
21,G33U C42A,0.13
22,G33U C42G,0.07
23,G33U C42U,0.09
24,U34G G40U,0.05

row,Variant,self-cleavage
1,U34G G40A,0.03
2,U34G G40C,0.07
3,G36A C42U,0.15
4,G36A C42G,0.07
5,G36A C42A,0.16
6,G33U A41G,0.07
7,G33U A41C,0.06
8,G33U A41U,0.09
9,G33U G36A,0.08
10,G33U G36C,0.05
11,G33U G36U,0.05
12,G33C U34A,0.09
13,G33C U34G,0.07
14,G33C U34C,0.03
15,G33A U43A,0.12
16,G33A U43G,0.13
17,G33A U43C,0.05
18,G35C G36U,0.09
19,G35C G36C,0.03
20,G35C G36A,0.05
21,G36A G40A,0.29
22,G36A G40C,0.27
23,G36A G40U,0.47
24,G35C U38G,0.02

row,Variant,self-cleavage
1,G35C U38A,0.16
2,G35C U38C,0.05
3,U34C C45A,0.05
4,U34C C45G,0.11
5,U34C C45U,0.14
6,G35C A41C,0.06
7,G35C A41U,0.13
8,G35C A41G,0.08
9,G36A,0.2
10,G35A C45U,0.13
11,G35A C45G,0.13
12,G35A C45A,0.13
13,G33C,0.07
14,G33U,0.11
15,G35U C42U,0.11
16,G35U C42G,0.05
17,G35U C42A,0.08
18,U34G C46G,0.14
19,U34G C46A,0.18
20,U34G C46U,0.19
21,G33C A39C,0.09
22,G33C A39U,0.05
23,G33C A39G,0.03
24,G35A G44A,0.1

row,Variant,self-cleavage
1,G35A G44C,0.07
2,G35A G44U,0.09
3,U34C C42G,0.05
4,U34C C42A,0.09
5,U34C C42U,0.12
6,U34C C46A,0.16
7,U34C C46G,0.1
8,U34C C46U,0.12
9,G36A C37G,0.05
10,G36A C37A,0.11
11,G36A C37U,0.31
12,G33U U43C,0.08
13,G33U U43A,0.12
14,G33U U43G,0.02
15,G35A U38G,0.02
16,G35A U38C,0.06
17,G35A U38A,0.1
18,G33C U43G,0.01
19,G33C U43C,0.03
20,G33C U43A,0.12
21,U34A G35C,0.13
22,U34A G35U,0.06
23,U34A G35A,0.07
24,G35U A39U,0.1

row,Variant,self-cleavage
1,G35U A39C,0.11
2,G35U A39G,0.22
3,G33C G36C,0.04
4,G33C G36A,0.03
5,G33C G36U,0.06
6,G33U A39C,0.07
7,G33U A39G,0.12
8,G33U A39U,0.15
9,G33U U38A,0.08
10,G33U U38G,0.04
11,G33U U38C,0.08
12,G35C G40C,0.08
13,G35C G40A,0.1
14,G35C G40U,0.09
15,G33U G44C,0.06
16,G33U G44U,0.07
17,G33U G44A,0.07
18,U34C G40U,0.1
19,U34C G40C,0.02
20,U34C G40A,0.11
21,U34A G44A,0.06
22,U34A G44C,0.04
23,U34A G44U,0.11
24,G35U G40A,0.09

row,Variant,self-cleavage
1,G35U G40C,0.06
2,G35U G40U,0.12
3,U34G C42A,0.07
4,U34G C42G,0.05
5,U34G C42U,0.1
6,U34C G44U,0.09
7,U34C G44C,0.11
8,U34C G44A,0.12
9,U34G G36C,0.05
10,U34G G36A,0.07
11,U34G G36U,0.11
12,G35U C46A,0.11
13,G35U C46U,0.1
14,G35U C46G,0.09
15,U34G U43C,0.07
16,U34G U43A,0.21
17,G35U U43C,0.05
18,G35U U43G,0.07
19,G35U U43A,0.15
20,U34A C46U,0.09
21,U34A C46A,0.06
22,U34A C46G,0.08
23,G35U G36C,0.11
24,G35U G36U,0.1

row,Variant,self-cleavage
1,G35U G36A,0.16
2,G36A C45U,0.8
3,G36A C45G,0.13
4,G36A C45A,0.14
5,U34A C42G,0.04
6,U34A C42U,0.05
7,U34A C42A,0.05
8,G36A C46G,0.34
9,G36A C46A,0.14
10,G36A C46U,0.26
11,G33C C42G,0.05
12,G33C C42U,0.06
13,G33C C42A,0.06
14,U34G,0.24
15,U34C,0.13
16,U34A,0.1
17,G33C G44U,0.04
18,G33C G44A,0.03
19,G33C G44C,0.04
20,G33A U34C,0.09
21,G33A U34A,0.09
22,G33A U34G,0.04
